Assay results from patent publication US20070136889A1 (CROPDESIGN N V, published 2007).
Numbering of substitutions follows the chain as printed. Names may count otherwise.

Legend:
[1] = molecular target: T1, GAL4 DNA-binding domain only (plasmid pGBT9) (UniProt P04386 1-147); experiment: yeast two-hybrid, his3 reporter, control with empty pGBT9
T1 construct: Negative control of the two-hybrid assay; also called empty pGBT9 vector
Experimental: The need for this C-terminal domain for the interaction with CDC2At was assayed using the two-hybrid system. A gene encoding a truncated CKS1At protein was created by mutating the Tyr73 codon to a stop codon, thereby deleting the last 15 amino acids. Subsequently, this mutated gene was cloned in frame with the GAL4 activation domain, resulting in the pGADCDSQ plasmid. This vector was introduced into the HF7c yeast reporter strain, together with pGBTCDC2A or the empty pGBT9 vector. […] Therefore, this part of the CKS1At protein might be involved in the interaction with other proteins or may improve the stability of the CDK-CKS1At interaction.

[2] = molecular target: T2, CDC2aAt protein (Arabidopsis thaliana, UniProt P24100 1-294); experiment: co-immunoprecipitation with the CKS1At antibody from extracts of G1/S cells, blot probed with the CDC2aAt antibody
T2 construct: Endogenous protein in extracts of partially synchronized Arabidopsis cell suspensions
T2 sequence (P24100 whole entry): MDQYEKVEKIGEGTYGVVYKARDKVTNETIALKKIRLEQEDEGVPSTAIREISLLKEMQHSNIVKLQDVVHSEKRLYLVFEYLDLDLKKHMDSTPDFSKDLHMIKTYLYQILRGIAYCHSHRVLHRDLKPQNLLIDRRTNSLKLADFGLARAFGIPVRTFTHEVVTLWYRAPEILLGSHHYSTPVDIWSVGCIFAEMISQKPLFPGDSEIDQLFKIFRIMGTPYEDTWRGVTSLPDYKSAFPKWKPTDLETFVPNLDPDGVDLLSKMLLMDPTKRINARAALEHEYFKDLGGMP
Experimental: Arabidopsis thaliana cell suspensions were partially synchronized by the addition of aphidicolin to freshly diluted cell suspension cells. After 24 hours the drug was washed away and cells were cultivated in new medium. Samples were collected at several time points and partly used for nuclei preparation, partly for protein extraction. […] The CKS1At containing complexes were precipitated with the use of a CKS1At specific antibody (see example 9 of this application). These complexes were resolved on a SDS PAGE gel and immunoblotted. The presence of CDC2aAt as a component of the immuno-precipitated complexes was verified by probing this blot with a CDC2aAt specific antibody. This antibody detected a specific band of the correct molecular size in the extracts of the G1/S cells.

[3] = molecular target: T3, GAL4 DNA-binding domain-CDC2bAt fusion protein encoded by pGBTCDC2B (Arabidopsis thaliana, UniProt P04386 1-147; P25859 1-309); experiment: yeast two-hybrid, his3 reporter
T3 construct: Two-hybrid bait
Experimental: The recently published structure of the human CDK2 protein in complex with the human CKS1At homologue CKSHs1 helped to identify the amino-acids in the CKS/SUC1 proteins important for interaction with CDKs. Based upon this information the E61 residue of CKS1At was mutated into Q61 by PCR. The consequences of this mutation upon the binding affinity for CDC2aAt and CDC2bAt were tested with the use of a two-hybrid system utilizing the his3 gene as reporter gene. The coding region of both the wild type CKS1At and the mutated CKS1At.Q61 gene was cloned in frame with the GAL4 activation domain in the pGAD424 vector, resulting in the pGADCKS and pGADCKS.Q61 respectively. These vectors were used to cotransform the HF7c yeast cells with pGBTCDC2A or pGBTCDC2B. The pGBTCDC2A and pGBTCDC2B vectors encode for a fusion protein between the GAL4 DNA-binding domain and CDC2aAt or CDC2bAt respectively. The transformants were plated on selective medium in the absence of histidine to test the interactions between CKS1At and CKS1At.Q61 with CDC2aAt and CDC2bAt. Transformants were also streaked on medium containing 10, 20, 40, 80 or 160 mM 3-amino-1,2,4-triazole (3-AT). 3-AT acts as a competitive inhibitor of the his3 gene product.

[4] = molecular target: T4, GAL4 DNA-binding domain-CDC2aAt fusion protein encoded by pGBTCDC2A (Arabidopsis thaliana, UniProt P04386 1-147; P24100 1-294); experiment: yeast two-hybrid, his3 reporter, control with GAL4 activation domain only
T4 construct: Two-hybrid bait

B1: GAL4 activation domain fused to truncated CKS1At lacking the last 15 amino acids, encoded by pGADCKSQ (other, not shown: large carriers)
chain: MGQIQYSEKYFDDTFEYRHVVLPPEVAKLLPKNRLLSENEWRAIGVQQSRGWVHYAVHRPEPHIMLFRRPLN
notes: Tyr73 codon mutated to a stop codon, deleting the last 15 amino acids; also called pGADCDSQ; truncated CKS1At protein
**Q.** Does B1 bind [1]?
**A.** no binding

B2: CKS1At protein (CDK-associating subunit from Arabidopsis thaliana) (other)
chain: MGQIQYSEKYFDDTFEYRHVVLPPEVAKLLPKNRLLSENEWRAIGVQQSRGWVHYAVHRPEPHIMLFRRPLNYQQQQENQAQNMLVK
notes: also called wild type CKS1At
**Q.** Does B2 bind [2]?
**A.** binds

B3: GAL4 activation domain-CKS1At.Q61 fusion protein encoded by pGADCKS.Q61 (other, not shown: large carriers; small tags and cut ends)
chain: B2 chain with E61Q
notes: Two-hybrid prey with the E61 residue of CKS1At mutated into Q61; also called CKS1At mutant E61Q
**Q.** Does B3 bind [3]?
**A.** no binding

B4: GAL4 activation domain only (vector pGAD424) (other, UniProt P04386 768-881, looked up)
chain: ANFNQSGNIADSSLSFTFTNSSNGPNLITTQTNSQALSQPIASSNVHDNFMNNEITASKIDDGNNSKPLSPGWTDQTAYNAFGITTGMFNTTTMDDVYNYLFDDEDTPPNPKKE
notes: Negative control of the two-hybrid assay
**Q.** Does B4 bind [4]?
**A.** no binding
